B1: CYP82Y2 module: N-terminal CYP82Y2 module of STORR (codon optimized SEQ ID NO 32) expressed with opium poppy CPR redox partner in S. cerevisiae (protein)
chain: MELQYISYFQPTSSVVALLLALVSILSSVVVLRKTFLNNYSSSPASSTKTAVLSHQRQQSCALPISGLLHIFMNKNGLIHVTLGNMADKYGPIFSFPTGSHRTLVVSSWEMVKECFTGNNDTAFSNRPIPLAFKTIFYACGGIDSYGLSSVPYGKYWRELRKVCVHNLLSNQQLLKFRHLIISQVDTSFNKLYELCKNSEDNHGNYTTTTTTAAGMVRIDDWLAELSFNVIGRIVCGFQSGPKTGAPSRVEQFKEAINEASYFMSTSPVSDNVPMLGWIDQLTGLTRNMKHCGKKLDLVVESIINDHRQKRRFSRTKGGDEKDDEQDDFIDICLSIMEQPQLPGNNNPSQIPIKSIVLDMIGGGTDTTKLTTIWTLSLLLNNPHVLDKAKQEVDAHFRTKRRSTNDAAAAVVDFDDIRNLVYIQAIIKESMRLYPASPVVERLSGEDCVVGGFHVPAGTRLWANVWKMQRDPKVWDDPLVFRPDRFLSDEQKMVDVRGQNYELLPFGAGRRVCPGVSFSLDLMQLVLTRLILEFEMKSPSGKVDMTATPGLMSYKVIPLDILLTHRRIKPCVQSAASERD
modifications: co-expressed with poppy CPR in yeast; Yeast codon optimized CYP82Y2
B2: STORR fusion: Full length CYP82Y2-oxidoreductase fusion protein (SEQ ID NO 1; codon optimized SEQ ID NO 31) expressed with PsCPR in S. cerevisiae (protein, listed as Papaver somniferum)
chain: MELQYISYFQPTSSVVALLLALVSILSSVVVLRKTFLNNYSSSPASSTKTAVLSHQRQQSCALPISGLLHIFMNKNGLIHVTLGNMADKYGPIFSFPTGSHRTLVVSSWEMVKECFTGNNDTAFSNRPIPLAFKTIFYACGGIDSYGLSSVPYGKYWRELRKVCVHNLLSNQQLLKFRHLIISQVDTSFNKLYELCKNSEDNHGNYTTTTTTAAGMVRIDDWLAELSFNVIGRIVCGFQSGPKTGAPSRVEQFKEAINEASYFMSTSPVSDNVPMLGWIDQLTGLTRNMKHCGKKLDLVVESIINDHRQKRRFSRTKGGDEKDDEQDDFIDICLSIMEQPQLPGNNNPSQIPIKSIVLDMIGGGTDTTKLTTIWTLSLLLNNPHVLDKAKQEVDAHFRTKRRSTNDAAAAVVDFDDIRNLVYIQAIIKESMRLYPASPVVERLSGEDCVVGGFHVPAGTRLWANVWKMQRDPKVWDDPLVFRPDRFLSDEQKMVDVRGQNYELLPFGAGRRVCPGVSFSLDLMQLVLTRLILEFEMKSPSGKVDMTATPGLMSYKVIPLDILLTHRRIKPCVQSAASERDMESSGVPVITLGSGKVMPVLGMGTFEKVGKGSERERLAILKAIEVGYRYFDTAAAYETEEVLGEAIAEALQLGLVKSRDELFISSMLWCTDAHADRVLLALQNSLRNLKLEYVDLYMLPFPASLKPGKITMDIPEEDICRMDYRSVWAAMEECQNLGFTKSIGVSNFSCKKLQELMATANIPPAVNQVEMSPAFQQKKLREYCNANNILVSAISVLGSNGTPWGSNAVLGSEVLKKIAMAKGKSVAQVSMRWVYEQGASLVVKSFSEERLRENLNIFDWELTKEDHEKIGEIPQCRILSAYFLVSPNGPFKSQEELWDDEA
modifications: co-expressed with PsCPR

Legend:
[1] = Enzyme assay on soluble/microsomal preparations of S. cerevisiae expressing STORR fusion or modules, substrate 1,2-dehydroreticuline; format: biochemical; details: soluble or microsomal preparations from S. cerevisiae; 100 μM substrate, 1 mM NADPH, 37° C. 3 hours
Text: (§1) Genscript created synthetic DNA sequences were created for PsCPR [Genbank accession AAC05021, (Rosco A. et al. (1997) Arch. Biochem. Biophys. 348, 369-77), the full length STORR (CYP82Y2-Oxidoreductatse (“Oxired”)) protein, the N-terminal CYP82Y2 module and C-terminal oxidoreductase (Oxidoreductase) module, that were codon optimised for expression is Saccharomyces cerevisiae. The codon-optimized sequences are provided with the SEQ ID NO 30-33.
(§2) Expression vector pESC-TRP::soloxired was created by digesting the corresponding PCR product with NotI and PacI and inserting this behind the GAL10 promoter of pESC-TRP. pESC-TRP::CPR was created by digesting the corresponding PCR product with BamHI and XhoI and inserting this behind the GAL1 promoter of pESC-TRP. This was then used to created pESC-TRP::CPR::CYP82Y2 and pESC-TRP::CPR::CYP82Y2-Oxidoreductase. These plasmids were then transformed in S. cerevisiae G175 (Sorger D. et al. (2004) J. Biol. Chem. 279, 31190-6) using lithium acetate protocol (Geitz R. D. and Woods R. A. (2002) Methods in Enzymology 350, 87-96). Yeasts were cultivated in Synthetic Defined (SD) medium composed of 2% carbon source, 0.5% ammonium sulfate, 1.7 g L^−1 yeast nitrogen base (without amino acids and ammonium sulfate) and 1.92 g L^−1 or tryptophan drop-out supplement (Sigma-Aldrich, Gillingham, UK). Cultures grown using glucose as a carbon source were used to inoculate 200 ml cultures with raffinose as a carbon source to an OD 600 nm of 0.10 in 1 L conical flasks. […]
(§3) Enzymes assays were set up in 250 μL volumes containing final concentrations of 50 mM Bis-tris propane buffer, 1 mM NADPH and 100 μM of substrate. […] The extract was then dissolved in 100 μL of 50:50:0.1 hexane/ethanol/diethylamine and analysed by the chiral HPLC method to determine the relative amounts of (R)- and (S)-reticuline.
(§4) Poppy capsules were processed and analysed by UPLC-MS and R-scripts as previously described (“the standard method”; (Winzer T. et al. (2012) Science 336, 1704-8)). […]

[2] = Enzyme assay on microsomal preparations of S. cerevisiae expressing STORR fusion or modules, substrate (S)-reticuline; format: biochemical
Text: as §1, §2, §3, §4

Row | Molecule | conversion efficiency of 1,2-dehydroreticuline to (R)-reticuline [1] | conversion of (S)-reticuline to 1,2-dehydroreticuline ([2]; microsomal preparations from S. cerevisiae, with CPR redox partner, 100 μM substrate, 37° C. 3 hours) [%] | accumulation of 1,2-dehydroreticuline during conversion of (S)- to (R)-reticuline ([2]; microsomal fractions harboring the fusion protein) | added (S)-reticuline converted to (R)-reticuline ([2]; microsomal preparations from S. cerevisiae, with CPR, 100 μM substrate, 37° C. 3 hours)
1 | B1 | not | ~100 |  | 
2 | B2 | 100% |  | no detectable accumulation | about 20%
